One experiment deals with T1, PARD3B_1, Q8TEW8.
T1 sequence (Q8TEW8 196-299, limits assumed, looked up): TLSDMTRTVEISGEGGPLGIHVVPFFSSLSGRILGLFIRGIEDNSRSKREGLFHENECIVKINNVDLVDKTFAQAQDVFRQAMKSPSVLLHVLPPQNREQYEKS
Briefly: holdup assay. On the set-up: key: below the threshold = too weak to quantify, mostly under pKd 3.1 to 4. The settings on record: plain residues with an end cap or a label only (N-terminal biotin on a linker: ado-ado).

In the next experiment the target is T2, DLG3_1, Q92796.
T2 sequence (Q92796 125-227, limits assumed, looked up): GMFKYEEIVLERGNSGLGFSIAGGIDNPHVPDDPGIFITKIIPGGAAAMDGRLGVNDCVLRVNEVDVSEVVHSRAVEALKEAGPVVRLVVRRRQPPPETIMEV
Kind of experiment: holdup assay. Particulars: plain residues with an end cap or a label only (N-terminal biotin on a linker: ado-ado). On the set-up: key: below the threshold = too weak to quantify, mostly under pKd 3.1 to 4.

These results are taken from paper PMC9482650, “Quantitative fragmentomics allow affinity mapping of interactomes” (Nature Communications, 2022).

B1: CLDN9, O95484 (peptide)
chain: ASGLDKRDYV
As to B1, the pKd result with PARD3B_1, Q8TEW8 is given as “below the threshold”; with DLG3_1, Q92796, “below the threshold”.

B2: EZH1, Q92800 (peptide)
chain: VGIERETDVL
For the molecule B2, the negative logarithm of the Kd (pKd) in the experiment with PARD3B_1, Q8TEW8 is 3.65; with DLG3_1, Q92796, “below the threshold”.

B3: ADGRG1, Q9Y653 (peptide)
chain: SSGSTSSSRI
Consider B3, for which the negative logarithm of the Kd (pKd) with PARD3B_1, Q8TEW8 came out at 3.93; with DLG3_1, Q92796 it was 3.54.

B4: NDE1, Q9NXR1;Q9NXR1-2 (peptide)
chain: KSTTRSSSSC
Regarding B4, the pKd result is reported as “below the threshold” with PARD3B_1, Q8TEW8 and “below the threshold” with DLG3_1, Q92796.

B5: APPL1, Q9UKG1 (peptide)
chain: EGGKKRESEA
As for B5, the negative-log Kd (pKd) result with PARD3B_1, Q8TEW8 was “below the threshold”; in the experiment with DLG3_1, Q92796, “below the threshold”.

B6: CTBP1, Q13363 (peptide)
chain: ADRDHASDQL
With B6, the pKd entry in the experiment with PARD3B_1, Q8TEW8 is recorded as “below the threshold”; with DLG3_1, Q92796 it was “below the threshold”.

B7: SCN4A, P35499 (peptide)
chain: VRPGVKESLV
On to B7, for which the pKd result with PARD3B_1, Q8TEW8 is “below the threshold”; with DLG3_1, Q92796 it was 4.5.

B8: PLCB1, Q9NQ66 (peptide)
chain: IPGKEFDTPL
B8: the negative-log Kd (pKd) result in the experiment with PARD3B_1, Q8TEW8 is on record as “below the threshold”; with DLG3_1, Q92796, “below the threshold”.

B9: SEMA4C, Q9C0C4 (peptide)
chain: PDSNPEESSV
Turning to B9, the pKd entry with PARD3B_1, Q8TEW8 is “below the threshold”; in the experiment with DLG3_1, Q92796, “below the threshold”.

B10: GOLT1A, Q6ZVE7 (peptide)
chain: RRLQGTSSMV
For the molecule B10, the pKd result in the experiment with PARD3B_1, Q8TEW8 was “below the threshold”; with DLG3_1, Q92796 it was 3.81.

B11: YAP1, P46937 (peptide)
chain: LDKESFLTWL
On to B11, for which the pKd is 4.44 with PARD3B_1, Q8TEW8 and “below the threshold” in the experiment with DLG3_1, Q92796.

B12: GAGE12J, A6NER3 (peptide)
chain: PEEGKKQSQC
For B12, the pKd entry with PARD3B_1, Q8TEW8 is given as “below the threshold”; with DLG3_1, Q92796, “below the threshold”.

B13: ADGRA1, Q86SQ6 (peptide)
chain: TGPWKNETTV
B13: the pKd result in the experiment with PARD3B_1, Q8TEW8 was “below the threshold”; with DLG3_1, Q92796, 4.47.

B14: IGF1R, P08069 (peptide)
chain: ALPLPQSSTC
As to B14, the pKd entry with PARD3B_1, Q8TEW8 was “below the threshold”; with DLG3_1, Q92796 it was “below the threshold”.

B15: NECTIN3, Q9NQS3 (peptide)
chain: SVISRREWYV
Turning to B15, the negative-log Kd (pKd) with PARD3B_1, Q8TEW8 was 4.79; with DLG3_1, Q92796, “below the threshold”.

B16: KCNT1, Q5JUK3 (peptide)
chain: NPETRDETQL
As for B16, the negative logarithm of the Kd (pKd) with PARD3B_1, Q8TEW8 was 3.92; with DLG3_1, Q92796, “below the threshold”.

B17: TNRC6A, Q8NDV7 (peptide)
chain: DHLGGGGESM
Take B17: the pKd is 3.59 in the experiment with PARD3B_1, Q8TEW8 and “below the threshold” in the experiment with DLG3_1, Q92796.

B18: RRBP1, Q9P2E9 (peptide)
chain: GSSSKEGTSV
As for B18, the negative logarithm of the Kd (pKd) result was “below the threshold” in the experiment with PARD3B_1, Q8TEW8 and 3.69 with DLG3_1, Q92796.

B19: ADAM17, P78536 (peptide)
chain: NRVDSKETEC
As for B19, the pKd result with PARD3B_1, Q8TEW8 is “below the threshold”; with DLG3_1, Q92796, 3.77.

B20: ITK, Q08881 (peptide)
chain: QLAEIAESGL
As for B20, the pKd with PARD3B_1, Q8TEW8 was determined as 3.63; with DLG3_1, Q92796, 3.56.

B21: PKN2, Q16513 (peptide)
chain: RDFDYIADWC
As for B21, the pKd with PARD3B_1, Q8TEW8 is 3.54; in the experiment with DLG3_1, Q92796, “below the threshold”.

B22: PLEKHG7, Q6ZR37 (peptide)
chain: FTLPAESSEI
As to B22, the pKd entry in the experiment with PARD3B_1, Q8TEW8 is listed as “below the threshold”; with DLG3_1, Q92796, “below the threshold”.

B23: GNG4, P50150 (peptide)
chain: REKKFFCTIL
For the molecule B23, the pKd amounted to 5 in the experiment with PARD3B_1, Q8TEW8 and 3.65 in the experiment with DLG3_1, Q92796.

B24: GAB3, Q8WWW8 (peptide)
chain: EWTDERQSKV
Consider B24, for which the negative logarithm of the Kd (pKd) result with PARD3B_1, Q8TEW8 is “below the threshold”; with DLG3_1, Q92796, 3.59.

B25: DUSP10, Q9Y6W6 (peptide)
chain: PKLMGVETVV
Take B25: the pKd result with PARD3B_1, Q8TEW8 is “below the threshold”; with DLG3_1, Q92796, 4.63.

B26: RSBN1, Q5VWQ0 (peptide)
chain: NLQEHSTTSV
As to B26, the pKd entry with PARD3B_1, Q8TEW8 is reported as “below the threshold”; with DLG3_1, Q92796, “below the threshold”.

B27: ADGRA2, Q96PE1 (peptide)
chain: TGLWKSETTV
Turning to B27, the negative logarithm of the Kd (pKd) result with PARD3B_1, Q8TEW8 was “below the threshold”; with DLG3_1, Q92796, 4.43.

B28: EPHB6, O15197 (peptide)
chain: HLRQQGSVEV
In the case of B28, the pKd is 3.69 with PARD3B_1, Q8TEW8 and “below the threshold” with DLG3_1, Q92796.

The term pKd denotes −log10 of the Kd, conventionally taken in molar units.
